For experiment [1], the target named is human GITR, membrane bound (on activated human T cells or on 3A9-hGITR cells) (UniProt Q9Y5U5). The experiment is described as follows: cell-based or functional assay.
The target is the same in experiment [2]. Put plainly: FACS binding; activated human CD8 T cells. Particulars: ligand. For orientation: Flow cytometry measures light scatter and fluorescence of single cells or particles in a stream.

The IC50 is the concentration that gives 50% inhibition. Read a high IC50 as lower potency.

Chain of human GITR, membrane bound (on activated human T cells or on 3A9-hGITR cells) (Q9Y5U5 26-241): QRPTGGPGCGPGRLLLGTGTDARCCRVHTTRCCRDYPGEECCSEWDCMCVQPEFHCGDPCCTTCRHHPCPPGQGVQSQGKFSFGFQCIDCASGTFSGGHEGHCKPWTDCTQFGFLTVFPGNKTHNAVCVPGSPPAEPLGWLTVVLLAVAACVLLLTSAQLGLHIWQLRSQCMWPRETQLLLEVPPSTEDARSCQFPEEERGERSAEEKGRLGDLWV
Chain of recombinant human GITR ligand trimer (R&D Systems 6987-GL) (Q9UNG2 49-177): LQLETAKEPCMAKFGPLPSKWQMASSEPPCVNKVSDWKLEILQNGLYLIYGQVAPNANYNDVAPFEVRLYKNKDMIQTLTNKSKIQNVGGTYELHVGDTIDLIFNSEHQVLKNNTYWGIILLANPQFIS

hIgG1 Isotype Control (antibody): in experiment [1], the NFKB signaling (phospho-p65) Emax, CD4+ T cells was 4% and the NFKB signaling (phospho-p65) Emax, CD8+ T cells turned out to be 6%.
The substance “recombinant human GITR ligand trimer (R&D Systems 6987-GL) (from UniProt Q9UNG2 49-177)” came in with an IC50 in experiment [2] of 0.0163 mg/L.

The values above are taken from patent US20220175921A1.
